The test addresses NRC4 (NLR required for cell death 4) with the mutations L9E and D478V. Description: cryo-EM structure.

Values joined by “and” are separate entries in the source; they are usually repeats but may differ in a detail not shown here. Equal values may be shown once.

For “NRC4 (NLR required for cell death 4) with the mutations L9E and D478V (natural protein)”, the stoichiometry N was 6 and 12.

The values are drawn from paper doi:10.1101/2023.12.18.571367.
